Entries after “also recorded” stand apart in the source; their conditions may differ.
Tested on: sgRNA target sequence in pCAG-EGxxFP plasmid, HEK293T cells
Experiment: EGxxFP assay of candidate SaCas9 constructs (reconstituted EGFP expression)
Type: cell-based
Conditions: tetracycline aptamer and conditional exon inserted in position 2 and 8; FIG. 9
Procedure: The activity of candidate SaCas9 genes were then tested in an EGxxFP assay as described by Mashiko D et al. (see Sci Rep (2013) 3:3355). In short, the pCAG-EGxxFP plasmid containing 5′ and 3′ EGFP fragments that shares 482 bp under ubiquitous CAG promoter was prepared. An approximately 500 bp region containing the sgRNA target sequence was placed between EGFP fragments of pCAG-EGxxFP plasmid. The pCAG-EGxxFP plasmid was cotransfected with the candidate SaCas9 construct and sgRNA into HEK293T cells. When the candidate SaCas9 gene is properly transcribed and spliced, the target sequence in the EGxxFT gene was digested by sgRNA guided SaCas9 protein, the homologous dependent repair took place and reconstituted the EGFP expression.

B1: M2: tetracycline aptamer domain M2 (SEQ ID NO: 16) controlling splicing of a conditional exon in SaCas9 gene (nucleic acid)
chain: TTTCAGGCGCTAAAACATACCAGATGAAAGTCTGGAGAGGTGAAGAATACGACCACCTAGCGCCTGAAA
modifications: listed as DNA, chemistry not fully specified
  regulating the expression of SaCas9 (EGxxFP assay): worked well; also recorded: performed the best

B2: M3: tetracycline aptamer domain M3 (SEQ ID NO: 18) controlling splicing of a conditional exon in SaCas9 gene (nucleic acid)
chain: TTTCAGGCGCCAAAACATACCAGATGAAAGTCTGGAGAGGTGAAGAATACGACCACCTGGCGCCTGAAA
modifications: listed as DNA, chemistry not fully specified
  regulating the expression of SaCas9 (EGxxFP assay): worked well

— US20220127642A1, “CONTROLLABLE GENOME EDITING SYSTEM” (APPLIED STEMCELL, INC., priority 2019, published 2022)
